Source: paper PMC6162275

Molecular target: C-terminally truncated SthK 1-420
Test: high-speed atomic force microscopy (HS-AFM); SthK reconstituted in lipid bilayers (E. coli polar lipid extract, lipid-to-protein ratio 0.8 to 1.0 w:w) as 2D-crystals, adsorbed on mica; imaging buffer 20 mM HEPES pH 8.0, 100 mM KCl, 100 uM cAMP; the oligomer is seen in topographs of single channels

A stoichiometry N of 4 was found for “C-terminally truncated SthK 1-420 (domain or fragment)” in this work.
